Laboratory results taken from US20030148447A1.

Key:
[1] = molecular target: MPL-zalpha11 chimera (MPL extracellular and transmembrane domains fused to the zalpha11 intracellular signaling domain) (human); assay: cell-based or functional assay
[2] = molecular target: factor present in the activated CD3+ selected human T-cell conditioned media; assay: cell-based or functional assay

proliferation of BaF3/MPL-zalpha11 cells (Alamar Blue), fold over background (fold over background) [1] | inhibition of conditioned-medium-driven BaF3/Zalpha11 cell growth; soluble receptor concentration giving complete inhibition [2] | titration of soluble receptor; lowest concentration completely inhibiting BaF3/Zalpha11 growth [2] | Substance
10 |  |  | thrombopoietin (TPO) (ligand)
 | 10 µg/mL | 1.5 µg/mL | zalpha11-Fc4 soluble receptor (zalpha11 extracellular domain fused C-terminally to human IgG Fc, Fc4) (from UniProt Q9HBE5 20-237) (Fc fusion)
